The record followed here is US20110275699.

The target of this data set is bacterially expressed USF-1, P22415.
bacterially expressed USF-1, P22415, sequence (P22415 whole entry, looked up): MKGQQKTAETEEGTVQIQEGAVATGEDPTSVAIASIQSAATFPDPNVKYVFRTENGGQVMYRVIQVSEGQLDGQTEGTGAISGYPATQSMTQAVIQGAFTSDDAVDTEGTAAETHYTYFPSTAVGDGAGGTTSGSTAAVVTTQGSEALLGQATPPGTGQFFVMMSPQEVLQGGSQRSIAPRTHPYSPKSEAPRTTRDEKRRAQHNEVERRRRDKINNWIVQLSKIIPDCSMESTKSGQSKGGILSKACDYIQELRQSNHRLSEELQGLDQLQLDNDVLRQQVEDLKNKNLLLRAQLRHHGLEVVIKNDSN

B1: P/CAF (Upstate), recombinant/purified enzyme (protein)
chain: MLEEEVYSQNSPIWDQDFLSASSRTSQLGIQTVINPPPVAGTISYNSTSSSLEQPNAGSSSPACKASSGLEANPGEKRKMTDSHVLEEAKKPRVMGDIPMELINEVMSTITDPAAMLGPETNFLSAHSARDEAARLEERRGVIEFHVVGNSLNQKPNKKILMWLVGLQNVFSHQLPRMPKEYITRLVFDPKHKTLALIKDGRVIGGICFRMFPSQGFTEIVFCAVTSNEQVKGYGTHLMNHLKEYHIKHDILNFLTYADEYAIGYFKKQGFSKEIKIPKTKYVGYIKDYEGATLMGCELNPRIPYTEFSVIIKKQKEIIKKLIERKQAQIRKVYPGLSCFKDGVRQIPIESIPGIRETGWKPSGKEKSKEPRDPDQLYSTLKSILQQVKSHQSAWPFMEPVKRTEAPGYYEVIRFPMDLKTMSERLKNRYYVSKKLFMADLQRVFTNCKEYNPPESEYYKCANILEKFFFSKIKEAGLIDK
For the protein B1, the “in vitro acetylation of USF-1” value was “USF-1 was acetylated in vitro by P/CAF (lane 3), and acetylation was not detected in the absence of P/CAF or acetyl CoA (lane 1 and 2)”.
